Source: patent publication US20120231006A1 (Amgen, published 2012)
Where a chain is given by its changes, count along the chain named.

B1: mAb 5B1.1 (antibody, human IgG2, lambda, V domains shown)
VH: QVQLVQSGAEVKKPGASVKVSCKASGYTFTDYYINWVRQAPGQGLEWMGWINPNSGGSSYAQKFQGRVTMTRDTSISTAHMELIRLRSDDTAVYYCARERGGIEDWFDPWGQGTLVTVSS
VL: QSVLTQPPSVSGAPGQRVTISCTGSSSNIGAGYDVHWYQQLPGTAPKLLIYGNSNRPSGVPDRFSGSKSGTSASLAITKFQAEDEAVYYCQSYGSGLSGVVFGGGTKLTVLG
notes: fully human IgG2 lambda, Campaign 2; also called mAb 5Bl1.1
B2: mAb 2B4.1 (antibody, human IgG2, lambda, V domains shown)
VH: QVQLVQSGAEVKKPGASVKVSCKASGYTFTDYYMHWVRQAPGQGLEWMGWINPNSGGTNYVQKFQDRVTMTRDTSITTAYMELTRLRSDDTAVYYCAREEGDYGMDVWGQGTTVTVSS
VL: QSVLTQPPSVSGAPGQRVTISCTGSNSNIGTGYDVHWYQKLPGTAPRLLIYSHFNRPSGVPDRFSGSTSGTSASLAITGLQAEDEADYYCQSYDSSLSGSVFGGGTKLTVLG
B3: mAb 2D2.1 (antibody, human IgG2, lambda, V domains shown)
VH: QVQLQQWGAGLLKPSETLSLTCAVYGGSFSGYYWSWIRQPPGKGLEWIGEIDHSGRINYNPALKSRLTISVDTSKNQFSLKLSSVTAADTAVYYCARAGSGGYEDWFDPWGQGTLVTVSS
VL: QSVLTQPPSVSGAPGQRVTISCTGSSSNIGAGYNVHWYQQFPRTDPKLLIYVYNIRPSGVPDRFSGSRSGTSASLAITGLQTEDEADYYCQSYDSSLSGVVFGGGTKLTVLG
notes: fully human IgG2 lambda, Campaign 1; also called mAb 2D.1
B4: mAb 2B7.1 (antibody, human IgG2, V domains shown)
VH: B3 VH with R56S, I57T
VL: B3 VL with A31T
notes: fully human, Campaign 1
B5: mAb 2C1.1 (antibody, human IgG2, lambda, V domains shown)
VH: B3 VH with R56S, I57T
VL: B3 VL
notes: fully human IgG2 lambda, Campaign 1; tested hybridoma-purified and recombinant; also called anti-hOrai1 mAb 2C1.1

Columns and labels:
[1] = biological target: T1, hOrai1-mOrai1 ECL2 (…) protein (human/mouse chimera, UniProt Q96D31 1-301); assay: FACS, 293EBNA, RFI-POC grade; design: concentration or dose not given beside the values
T1 construct: also called Ch
T1 sequence (Q96D31 other isoform, or with tags, fused parts or gaps): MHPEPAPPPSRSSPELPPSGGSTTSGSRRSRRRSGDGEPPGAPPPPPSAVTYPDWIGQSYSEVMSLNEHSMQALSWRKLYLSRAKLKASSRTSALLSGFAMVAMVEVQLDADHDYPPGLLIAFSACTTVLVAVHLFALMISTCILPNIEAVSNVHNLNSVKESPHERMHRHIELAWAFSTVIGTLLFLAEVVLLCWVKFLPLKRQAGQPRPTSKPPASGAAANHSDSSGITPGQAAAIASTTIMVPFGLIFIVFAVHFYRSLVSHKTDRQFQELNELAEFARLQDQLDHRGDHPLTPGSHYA

[2] = biological target: T2, hOrai1-mOrai1 ECL2 (RPTSKPPA) protein (human/mouse chimera, UniProt Q96D31 1-301); assay: FACS, 293EBNA, RFI-POC grade; design: concentration or dose not given beside the values
T2 construct: also called Ch
T2 sequence (Q96D31 other isoform, or with tags, fused parts or gaps): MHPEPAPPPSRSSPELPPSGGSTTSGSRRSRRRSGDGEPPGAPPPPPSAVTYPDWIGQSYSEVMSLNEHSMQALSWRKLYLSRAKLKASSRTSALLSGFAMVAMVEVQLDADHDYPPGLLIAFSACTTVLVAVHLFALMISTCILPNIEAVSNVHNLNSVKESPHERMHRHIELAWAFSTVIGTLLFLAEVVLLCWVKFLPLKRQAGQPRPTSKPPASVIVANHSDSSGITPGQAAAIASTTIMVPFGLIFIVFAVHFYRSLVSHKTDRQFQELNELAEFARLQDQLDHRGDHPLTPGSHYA

[3] = biological target: T3, mOrai1-hOrai1 ECL2 chimeric protein (human/mouse chimera, UniProt Q8BWG9 1-304 (mouse entry)); assay: FACS, 293EBNA, RFI-POC grade; design: concentration or dose not given beside the values
T3 construct: mouse Orai1 with human ECL2; also called Ch
T3 sequence (Q8BWG9 other isoform, or with tags, fused parts or gaps mutant): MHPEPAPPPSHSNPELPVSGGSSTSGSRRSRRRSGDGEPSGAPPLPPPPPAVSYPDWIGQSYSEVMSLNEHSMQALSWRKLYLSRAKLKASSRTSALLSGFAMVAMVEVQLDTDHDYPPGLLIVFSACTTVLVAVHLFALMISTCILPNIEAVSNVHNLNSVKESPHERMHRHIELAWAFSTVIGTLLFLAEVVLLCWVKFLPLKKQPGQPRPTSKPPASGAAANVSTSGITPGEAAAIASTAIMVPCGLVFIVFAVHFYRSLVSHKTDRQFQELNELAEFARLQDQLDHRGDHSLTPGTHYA

[4] = biological target: T4, hOrai1-mOrai1 ECL2 (SKPPA) protein (human/mouse chimera, UniProt Q96D31 1-301); assay: FACS, 293EBNA, RFI-POC grade; design: concentration or dose not given beside the values
T4 construct: also called Ch
T4 sequence (Q96D31 other isoform, or with tags, fused parts or gaps): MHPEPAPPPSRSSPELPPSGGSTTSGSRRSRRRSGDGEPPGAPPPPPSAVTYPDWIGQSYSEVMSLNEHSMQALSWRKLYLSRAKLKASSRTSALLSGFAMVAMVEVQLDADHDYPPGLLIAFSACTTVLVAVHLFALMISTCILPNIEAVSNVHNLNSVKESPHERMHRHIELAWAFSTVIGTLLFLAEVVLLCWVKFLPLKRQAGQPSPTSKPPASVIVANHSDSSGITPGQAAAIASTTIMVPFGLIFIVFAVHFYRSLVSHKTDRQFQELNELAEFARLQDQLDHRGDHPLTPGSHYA

[5] = biological target: T5, hOrai1-mOrai1 ECL2 (…) protein (human/mouse chimera, UniProt Q96D31 1-301); assay: FACS, 293EBNA, RFI-POC grade; design: concentration or dose not given beside the values; remark: listed apart in the source
T5 construct: also called Ch
T5 sequence (Q96D31 other isoform, or with tags, fused parts or gaps): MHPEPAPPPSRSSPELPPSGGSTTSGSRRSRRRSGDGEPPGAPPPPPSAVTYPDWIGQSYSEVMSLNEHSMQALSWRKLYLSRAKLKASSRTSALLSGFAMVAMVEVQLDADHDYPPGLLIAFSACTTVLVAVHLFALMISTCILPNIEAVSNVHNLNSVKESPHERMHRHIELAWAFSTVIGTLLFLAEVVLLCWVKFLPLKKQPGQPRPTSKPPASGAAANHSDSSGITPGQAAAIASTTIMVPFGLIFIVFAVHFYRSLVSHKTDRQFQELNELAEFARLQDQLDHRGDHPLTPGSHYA

[6] = biological target: T6, hOrai1-mOrai1 ECL2 (…) protein (human/mouse chimera, UniProt Q96D31 1-301); assay: FACS, 293EBNA, RFI-POC grade; design: concentration or dose not given beside the values; remark: listed apart in the source
T6 construct: also called Ch
T6 sequence (Q96D31 other isoform, or with tags, fused parts or gaps): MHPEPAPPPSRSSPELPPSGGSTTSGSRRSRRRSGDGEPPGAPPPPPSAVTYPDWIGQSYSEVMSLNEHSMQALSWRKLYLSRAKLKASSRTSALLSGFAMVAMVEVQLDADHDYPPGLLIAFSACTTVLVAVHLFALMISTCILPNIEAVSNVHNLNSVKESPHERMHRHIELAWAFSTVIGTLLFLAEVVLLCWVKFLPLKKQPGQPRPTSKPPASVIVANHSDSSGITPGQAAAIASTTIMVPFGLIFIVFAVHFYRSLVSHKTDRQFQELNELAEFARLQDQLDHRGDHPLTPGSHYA

[7] = biological target: T7, hOrai1-mOrai1 ECL2 chimeric protein (human/mouse chimera, UniProt Q96D31 1-301); assay: FACS, 293EBNA; design: concentration or dose not given beside the values
T7 construct: human Orai1 with mouse ECL2; also called Ch
T7 sequence (Q96D31 other isoform, or with tags, fused parts or gaps mutant): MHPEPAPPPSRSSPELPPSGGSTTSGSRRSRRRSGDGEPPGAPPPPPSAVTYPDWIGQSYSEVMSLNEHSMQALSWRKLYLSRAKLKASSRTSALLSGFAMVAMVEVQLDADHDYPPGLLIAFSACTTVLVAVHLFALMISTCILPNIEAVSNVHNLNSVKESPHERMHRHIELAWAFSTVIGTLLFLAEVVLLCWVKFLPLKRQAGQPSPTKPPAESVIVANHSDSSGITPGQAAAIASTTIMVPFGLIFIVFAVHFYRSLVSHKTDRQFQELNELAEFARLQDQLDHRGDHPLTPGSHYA
From the text: (§1) FIG. 16A-D illustrates the results of FACS analysis showing binding to the indicated mOrai1-hOrai1 ECL2 chimeric mutants expressed on the surface of HEK-293-EBNA cells. Transfected cells were stained first with recombinant monoclonal antibodies then counter-stained with a secondary phycoerythrin-labeled goat (“Gt”) anti-human (“Hu”) IgG F(ab′)₂ antibody fragment and visualized using FACS. In FIG. 16B and FIG. 16D, The values of Relative Fluorescence Intensity as Percent of Control (RFI-POC) are calculated from the relative fluorescence intensity geometric mean (Geo Mean). The geometric mean is an average calculated by multiplying a series of numbers and taking the nth root where n is the number of numbers in the series. It is a statistical average of a set of transformed numbers often used to represent a central tendency in a highly variable data set that minimizes the effects of extreme values.
(§2) Table 11A and Table 11B feature a schematic representation of the POC data from FIG. 16B and FIG. 16D, respectively, where the binding results are recorded as (+++) denoting binding POC from 40% to 100%, (++) for POC of 5% to less than 40%, (+) for POC from 1% to less than 5% and (−) as lack of binding with POC less than 1%.

[8] = biological target: T8, mOrai1-hOrai1 ECL2 (…) protein (human/mouse chimera, UniProt Q8BWG9 1-304 (mouse entry)); assay: FACS, 293EBNA; design: concentration or dose not given beside the values
T8 construct: also called Ch
From the text: as §1, §2
T8 sequence (Q8BWG9 other isoform, or with tags, fused parts or gaps): as the sequence (Q8BWG9 other isoform, or with tags, fused parts or gaps mutant) above, with K206R, P208A, R212S, S215K, K216P, P218A, A219E counted along it

[9] = biological target: T9, mOrai1-hOrai1 ECL2 (KPPAE) protein (human/mouse chimera, UniProt Q8BWG9 1-304 (mouse entry)); assay: FACS, 293EBNA; design: concentration or dose not given beside the values
T9 construct: also called Ch
T9 sequence (Q8BWG9 other isoform, or with tags, fused parts or gaps): as the sequence (Q8BWG9 other isoform, or with tags, fused parts or gaps mutant) above, with S215K, K216P, P218A, A219E counted along it
From the text: as §1, §2

[10] = biological target: T10, mOrai1-hOrai1 ECL2 (…) protein (human/mouse chimera, UniProt Q8BWG9 1-304 (mouse entry)); assay: FACS, 293EBNA; design: concentration or dose not given beside the values; remark: listed apart in the source
T10 construct: also called Ch
From the text: as §1, §2
T10 sequence (Q8BWG9 other isoform, or with tags, fused parts or gaps): as the sequence (Q8BWG9 other isoform, or with tags, fused parts or gaps mutant) above, with R212S, S215K, K216P, P218A, A219E, G221V, A222I, A223V, V226H, T228D counted along it

[11] = biological target: T11, mOrai1-hOrai1 ECL2 (…) protein (human/mouse chimera, UniProt Q8BWG9 1-304 (mouse entry)); assay: FACS, 293EBNA; design: concentration or dose not given beside the values; remark: listed apart in the source
T11 construct: also called Ch
From the text: as §1, §2
T11 sequence (Q8BWG9 other isoform, or with tags, fused parts or gaps): as the sequence (Q8BWG9 other isoform, or with tags, fused parts or gaps mutant) above, with R212S, S215K, K216P, P218A, A219E, G221V, A222I, A223V counted along it

[12] = biological target: T12, mOrai1-hOrai1 ECL2 (SPTKPPAE) protein (human/mouse chimera, UniProt Q8BWG9 1-304 (mouse entry)); assay: FACS, 293EBNA; design: concentration or dose not given beside the values
T12 construct: also called Ch
T12 sequence (Q8BWG9 other isoform, or with tags, fused parts or gaps): as the sequence (Q8BWG9 other isoform, or with tags, fused parts or gaps mutant) above, with R212S, S215K, K216P, P218A, A219E counted along it
From the text: as §1, §2

[13] = biological target: T7, hOrai1-mOrai1 ECL2 chimeric protein; assay: FACS, 293EBNA transfectants
From the text: FIG. 15A-B illustrates the results of FACS analysis showing binding to human Orai1 extracellular loop 2-mouse Orai1 mutant expressed on the surface of HEK-293-EBNA cells. HEK-293-EBNA cells were transiently transfected with mouse Orai1 mutant where human Orai1 extracellular loop 2 replaced the mouse Orai1 extracellular loop 2 and human Orai1 mutant where mouse Orai1 extracellular loop 2 replaced human extracellular loop 2. Transfected cells were stained first with recombinant monoclonal antibodies then counter-stained with a secondary phycoerythrin-labeled goat (“Gt”) anti-human (“Hu”) IgG F(ab′)₂ antibody fragment and visualized using FACS.
FACS binding analysis. Transfected 293EBNA cells transiently expressed hOrai1-mOrai1 ECL2 or mOrai1-hOrai1 ECL2 chimera. The transfected cells were harvested at 48 hours post-transfection. Cells transfected with pcDNA3.1 were used as negative controls. Cells were washed once with ice-cold 1×PBS, resuspended in ice-cold FACS buffer (1×D-PBS+2% goat serum), and 2×10⁵ cells in 100 μL were stained per antibody combination. All antibody incubation steps were performed on ice for 1 hour. […] Next, the unlabelled antibody was detected using goat F(ab′)₂ anti-mouse or anti-human IgG-phycoerythrin (IgG-PE), followed by a wash with 200 μL of ice-cold FACS buffer before flow cytometry analysis. Unstained cells and cells stained with detecting antibodies were used as negative controls. The values of relative level of fluorescence were calculated using FCS Express (De Novo Software) and mean values were calculated using log-transformed data (geometric mean). The results of the FACS analysis are shown in FIG. 15A-B, which supports the conclusion that the hOrai1 ECL2 domain is the region of hOrai1 where antibodies of the present invention bind.

human Orai1 = biological target: T13, human Orai1 (human, UniProt Q96D31 1-301); assay: FACS Kd, AM1-CHO/hOrai1/hSTIM1-YFP cells
T13 construct: on AM1-CHO/hOrai1/hSTIM1-YFP, AM1/hOrai1, HEK-293 transfectants, endogenous on Jurkat and blood cells; in Westerns from cell lysates; also called hOrai1; CRACM1
T13 sequence (Q96D31 whole entry): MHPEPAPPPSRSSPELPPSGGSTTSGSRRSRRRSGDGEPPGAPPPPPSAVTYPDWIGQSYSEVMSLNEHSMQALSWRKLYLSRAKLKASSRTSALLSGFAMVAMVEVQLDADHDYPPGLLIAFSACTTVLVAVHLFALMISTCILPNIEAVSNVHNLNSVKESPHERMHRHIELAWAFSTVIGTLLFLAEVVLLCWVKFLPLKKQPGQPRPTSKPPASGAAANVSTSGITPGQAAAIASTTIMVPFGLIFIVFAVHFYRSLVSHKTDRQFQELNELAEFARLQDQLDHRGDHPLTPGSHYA
Method: The equilibrium plates were centrifuged at 500 g for 3 minutes and cell pellets were washed twice with 200 μL of ice cold FACS buffer (1×D-PBS+2% FBS). The cells were then incubated with a secondary antibody, goat anti-human Fc Cy5 at 5 μg/mL and 100 μL per well for 1 h on ice in the dark. Following the incubation, the cells were washed twice with 200 μL of ice-cold FACS buffer before flow cytometry analysis. The GeoMean values gated on live cell population measure the bound [Ab]. The inverse of the GeoMean values that reflects theoretical free [Ag] in the equilibrium solution was then calculated. The inverse values of the GeoMean read were used in KinExA® Pro software for analysis and Kd calculation for each antibody. The free [Ag] measure was plotted against the starting concentration of titrating component and from these plots at two different cell concentrations the Kd was obtained from curve fitting using n-curve analysis in KinExA Pro software. […] Shown in Table 14 (below) are the equilibrium dissociation constant (Kd) values of invented mAbs determined by FACS Kd measurement.

[14] = biological target: T14, mOrai1-hOrai1 ECL2 (…) protein (human/mouse chimera, UniProt Q8BWG9 1-304 (mouse entry)); assay: FACS, 293EBNA; design: concentration or dose not given beside the values; remark: listed apart in the source
T14 construct: also called Ch
From the text: as §1, §2
T14 sequence (Q8BWG9 other isoform, or with tags, fused parts or gaps): as the sequence (Q8BWG9 other isoform, or with tags, fused parts or gaps mutant) above, with P218A, A219E, G221V, A222I, A223V, V226H, T228D counted along it

[15] = biological target: T15, mOrai1-hOrai1 ECL2 (AESVIV) protein (human/mouse chimera, UniProt Q8BWG9 1-304 (mouse entry)); assay: FACS, 293EBNA; design: concentration or dose not given beside the values
T15 construct: also called Ch
T15 sequence (Q8BWG9 other isoform, or with tags, fused parts or gaps): as the sequence (Q8BWG9 other isoform, or with tags, fused parts or gaps mutant) above, with P218A, A219E, G221V, A222I, A223V counted along it
From the text: as §1, §2

| Binder | percent of control (POC) of FACS Geo Mean [1] | percent of control (POC) of FACS Geo Mean [2] | percent of control (POC) of FACS Geo Mean [3] | percent of control (POC) of FACS Geo Mean [4] | percent of control (POC) of FACS Geo Mean [5] | percent of control (POC) of FACS Geo Mean [6] | POC (percent of control, FACS Geo Mean relative to binding to Ch. 1) [7] | POC (percent of control, FACS Geo Mean relative to binding to Ch. 1) [8] | POC (percent of control, FACS Geo Mean relative to binding to Ch. 1) [9] | POC (percent of control, FACS Geo Mean relative to binding to Ch. 1) [10] | POC (percent of control, FACS Geo Mean relative to binding to Ch. 1) [11] | POC (percent of control, FACS Geo Mean relative to binding to Ch. 1) [12] | binding result [13] | Kd (human Orai1) | POC (percent of control, FACS Geo Mean relative to Ch. 1) [7] | POC (percent of control, FACS Geo Mean relative to Ch. 1) [8] | POC (percent of control, FACS Geo Mean relative to Ch. 1) [9] | POC (percent of control, FACS Geo Mean relative to Ch. 1) [10] | POC (percent of control, FACS Geo Mean relative to Ch. 1) [11] | POC (percent of control, FACS Geo Mean relative to Ch. 1) [12] | other results |
| --- | --- | --- | --- | --- | --- | --- | --- | --- | --- | --- | --- | --- | --- | --- | --- | --- | --- | --- | --- | --- | --- |
| B1 | 40 to 100% | 40 to 100% | 40 to 100% | 5 to 40% | 40 to 100% | 40 to 100% | < 1% | < 1% | < 1% | < 1% | < 1% | < 1% | no binding (tested: 1 µg) | 0.443 nM |  |  |  |  |  |  |  |
| B2 |  |  |  |  |  |  |  |  |  |  |  |  | no binding (tested: 1 µg) | 1.8 nM | < 1% | < 1% | < 1% | < 1% | < 1% | < 1% | POC (percent of control, FACS Geo Mean relative to Ch. 1) [14]: < 1%; POC (percent of control, FACS Geo Mean relative to Ch. 1) [15]: < 1% |
| B3 | 40 to 100% | 40 to 100% | 40 to 100% | 5 to 40% | 40 to 100% | 40 to 100% | < 1% | < 1% | < 1% | < 1% | < 1% | < 1% | no binding (tested: 1 µg) | 0.0098 nM | < 1% | < 1% | < 1% | < 1% | < 1% | < 1% |  |
| B4 |  |  |  |  |  |  |  |  |  |  |  |  | no binding (tested: 1 µg) | 0.133 nM | < 1% | < 1% | < 1% | < 1% | < 1% | < 1% |  |
| B5 |  |  |  |  |  |  |  |  |  |  |  |  | no binding (tested: 1 µg) | 0.52 nM | < 1% | < 1% | < 1% | < 1% | < 1% | < 1% |  |
